# Measured values published in IntAct's records for PubMed 24855949.
# B1: Ankyrin repeat domain-containing protein 49 (Homo sapiens), Q8WVL7 (parent)
# chain: MEKEKGNDDGIPDQENSLDFSEHFNQLELLETHGHLIPTGTQSLWVGNSDEDEEQDDKNEEWYRLQEKKMEKDPSRLLLWAAEKNRLTTVRRLLSEKATHVNTRDEDEYTPLHRAAYSGHLDIVQELIAQGADVHAVTVDGWTPLHSACKWNNTRVASFLLQHDADINAQTKGLLTPLHLAAGNRDSKDTLELLLMNRYVKPGLKNNLEETAFDIARRTSIYHYLFEIVEGCTNSSPQS
# B2: Cyclin-dependent kinase inhibitor 2A (Homo sapiens), P42771 (parent)
# chain: MEPAAGSSMEPSADWLATAAARGRVEEVRALLEAGALPNAPNSYGRRPIQVMMMGSARVAELLLLHGAEPNCADPATLTRPVHDAAREGFLDTLVVLHRAGARLDVRDAWGRLPVDLAEELGHRDVARYLRAAAGGTRGSNHARIDAAEGPSDIPD
# B3: NF-kappa-B inhibitor alpha (Gallus gallus (Chicken)), Q91974 (parent)
# chain: MLSAHRPAEPPAVEGCEPPRKERQGGLLPPDDRHDSGLDSMKEEEYRQLVRELEDIRLQPREPPARPHAWAQQLTEDGDTFLHLAIIHEEKALSLEVIRQAAGDAAFLNFQNNLSQTPLHLAVITDQAEIAEHLLKAGCDLDVRDFRGNTPLHIACQQGSLRSVSVLTQHCQPHHLLAVLQATNYNGHTCLHLASIQGYLAVVEYLLSLGADVNAQEPCNGRTALHLAVDLQNSDLVSLLVKHGPDVNKVTYQGYSPYQLTWGRDNASIQEQLKLLTTADLQILPESEDEESSESEPEFTEDELMYDDCCIGGRQLTF
# Variants of: B1
# Conditions: with ran_human RAN
row,Variant,effect of a mutation on the interaction
1,MEKEKGNDDGIPDQENSLDFSEHFNQLELLETHGHLIPTGTQSLWVGNSDEDEEQDDKNEEWYRLQEKKMEKDPSRLLLWAAEKNRLTTVRRLLSEKATHVNTRDECEYTPLHRAAYSGHLDIVQELIAQGADVHAVTVDGWTPLHSACCWNNTRVASFLLQHDADINAQTKGLLTPLHLAAGNRDSKDTLELLLMNRYVKPGLKNNLEETAFDIARRTSIYHYLFEIVEGCTNSSPQS [D107C;K150C],increasing interaction strength
2,MEKEKGNDDGIPDQENSLDFSEHFNQLELLETHGHLIPTGTQSLWVGNSDEDEEQDDKNEEWYRLQEKKMEKDPSRLLLWAAEKNRLTTVRRLLSEKATHVNTRDEDEYTPLHRAAYSGHLDIVQELIAQGADVHAVTVDGWTPLHSACKWNNTRVASFLLQHDADINAQTKGLLTPLHLAACNRDSKDTLELLLMNRYVKPGLKNNLEETAFDIARRTSIYHYLFEIVEGCTNSSPQS [G183C],increasing interaction strength
3,MEKEKGNDDGIPDQENSLDFSEHFNQLELLETHGHLIPTGTQSLWVGNSDEDEEQDDKNEEWYRLQEKKMEKDPSRLLLWAAEKNRLTTVRRLLSEKATHVNTRDEIEYTPLHRAAYSGHLDIVQELIAQGADVHAVTVDGWTPLHSACIWNNTRVASFLLQHDADINAQTKGLLTPLHLAAGNRDSKDTLELLLMNRYVKPGLKNNLEETAFDIARRTSIYHYLFEIVEGCTNSSPQS [D107I;K150I],increasing interaction strength
4,MEKEKGNDDGIPDQENSLDFSEHFNQLELLETHGHLIPTGTQSLWVGNSDEDEEQDDKNEEWYRLQEKKMEKDPSRLLLWAAEKNRLTTVRRLLSEKATHVNTRDECEYTPLHRAAYSGHLDIVQELIAQGADVHAVTVDGWTPLHSACCWNNTRVASFLLQHDADINAQTKGLLTPLHLAACNRDSKDTLELLLMNRYVKPGLKNNLEETAFDIARRTSIYHYLFEIVEGCTNSSPQS [D107C;K150C;G183C],increasing interaction strength
5,MEKEKGNDDGIPDQENSLDFSEHFNQLELLETHGHLIPTGTQSLWVGNSDEDEEQDDKNEEWYRLQEKKMEKDPSRLLLWAAEKNRLTTVRRLLSEKATHVNTRDEDEYTPLHRAAYSGHLDIVQELIAQGADVHAVTVDGWTPLHSACIWNNTRVASFLLQHDADINAQTKGLLTPLHLAAGNRDSKDTLELLLMNRYVKPGLKNNLEETAFDIARRTSIYHYLFEIVEGCTNSSPQS [K150I],increasing interaction strength

# Variants of: B2
# Conditions: with ran_human RAN
row,Variant,effect of a mutation on the interaction
1,M53I,disrupting interaction strength
2,R87P,disrupting interaction strength

# Variants of: B2
# Conditions: with cdk4_human CDK4, P11802
# cdk4_human CDK4, P11802, sequence (P11802 whole entry): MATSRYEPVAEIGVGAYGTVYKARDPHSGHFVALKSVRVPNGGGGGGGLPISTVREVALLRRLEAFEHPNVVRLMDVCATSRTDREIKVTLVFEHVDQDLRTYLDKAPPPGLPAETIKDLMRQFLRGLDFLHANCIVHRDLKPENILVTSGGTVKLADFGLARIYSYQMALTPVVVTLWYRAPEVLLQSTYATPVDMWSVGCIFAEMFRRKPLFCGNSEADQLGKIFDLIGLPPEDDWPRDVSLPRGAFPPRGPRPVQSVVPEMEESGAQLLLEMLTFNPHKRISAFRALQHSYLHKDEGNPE
row,Variant,effect of a mutation on the interaction
1,M53I,increasing interaction strength
2,R87P,increasing interaction strength

# Variants of: B2
# Conditions: with ccnd1_human CCND1, P24385
# ccnd1_human CCND1, P24385, sequence (P24385 whole entry): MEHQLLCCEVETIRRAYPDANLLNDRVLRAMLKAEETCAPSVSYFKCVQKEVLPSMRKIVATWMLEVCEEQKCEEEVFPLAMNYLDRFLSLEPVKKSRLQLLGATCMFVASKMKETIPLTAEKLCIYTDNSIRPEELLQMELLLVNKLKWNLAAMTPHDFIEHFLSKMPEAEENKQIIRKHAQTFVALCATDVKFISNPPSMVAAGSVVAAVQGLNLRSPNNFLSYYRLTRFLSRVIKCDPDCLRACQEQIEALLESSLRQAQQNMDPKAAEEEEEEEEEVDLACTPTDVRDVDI
row,Variant,effect of a mutation on the interaction
1,M53I,increasing interaction strength
2,R87P,disrupting interaction strength

# Variants of: B2
# Conditions: with cdk6_human CDK6, Q00534
# cdk6_human CDK6, Q00534, sequence (Q00534 whole entry): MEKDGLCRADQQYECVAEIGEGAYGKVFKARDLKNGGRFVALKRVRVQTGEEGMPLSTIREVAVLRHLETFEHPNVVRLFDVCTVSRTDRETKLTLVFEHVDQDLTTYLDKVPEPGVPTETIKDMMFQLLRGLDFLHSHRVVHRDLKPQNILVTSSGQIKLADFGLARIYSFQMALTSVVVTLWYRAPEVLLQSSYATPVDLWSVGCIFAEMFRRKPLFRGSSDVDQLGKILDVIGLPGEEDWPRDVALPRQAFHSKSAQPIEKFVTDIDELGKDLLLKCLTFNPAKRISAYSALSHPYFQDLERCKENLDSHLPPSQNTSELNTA
row,Variant,effect of a mutation on the interaction
1,M53I,increasing interaction strength
2,R87P,increasing interaction strength

# Variants of: B2
# Conditions: with ran_human RAN
# Remark: another data set of the same source
row,Variant,effect of a mutation on the interaction
1,M53I,increasing interaction strength
2,R87P,increasing interaction strength

# Variants of: B2
# Conditions: with cdk4_human CDK4, P11802
# Remark: another data set of the same source
row,Variant,effect of a mutation on the interaction
1,R87P,decreasing interaction strength

# Variants of: B2
# Conditions: with cdk6_human CDK6, Q00534
# Remark: another data set of the same source
row,Variant,effect of a mutation on the interaction
1,R87P,decreasing interaction strength

# Variants of: B3
# Conditions: with ran_human RAN
row,Variant,effect of a mutation on the interaction
1,MLSAHRPAEPPAVEGCEPPRKERQGGLLPPDDRHDSGLDSMKEEEYRQLVRELEDIRLQPREPPARPHAWAQQLTEDGDTFLHLAIIHEEKALSLEVIRQAAGDAAFLNFQNNLSQTPLHLAVQTDQAEIAEHLLKAGCDLDVRDFRGNTPLHIACQQGSLRSVSVLTQHCQPHHLLAVLQATNYNGHTCLHLASIQGYLAVVEYLLSLGADVNAQEPCNGRTALHLAVDLQNSDLVSLLVKHGPDVNKVTYQGYSPYQLTWGRDNASIQEQLKLLTTADLQILPESEDEESSESEPEFTEDELMYDDCCIGGRQLTF [I124Q],decreasing interaction strength
2,MLSAHRPAEPPAVEGCEPPRKERQGGLLPPDDRHDSGLDSMKEEEYRQLVRELEDIRLQPREPPARPHAWAQQLTEDGDTFLHLAIIHEEKALSLEVIRQAAGDAAFLNFQNNLSQTPLHLAVETDQAEIAEHLLKAGCDLDVRDFRGNTPLHIACQQGSLRSVSVLTQHCQPHHLLAVLQATNYNGHTCLHLASIQGYLAVVEYLLSLGADVNAQEPCNGRTALHLAVDLQNSDLVSLLVKHGPDVNKVTYQGYSPYQLTWGRDNASIQEQLKLLTTADLQILPESEDEESSESEPEFTEDELMYDDCCIGGRQLTF [I124E],decreasing interaction strength
3,MLSAHRPAEPPAVEGCEPPRKERQGGLLPPDDRHDSGLDSMKEEEYRQLVRELEDIRLQPREPPARPHAWAQQLTEDGDTFLHLAIIHEEKALSLEVIRQAAGDAAFLNFQNNLSQTPLHLAVATDQAEIAEHLLKAGCDLDVRDFRGNTPLHIACQQGSLRSVSVLTQHCQPHHLLAVLQATNYNGHTCLHLASIQGYLAVVEYLLSLGADVNAQEPCNGRTALHLAVDLQNSDLVSLLVKHGPDVNKVTYQGYSPYQLTWGRDNASIQEQLKLLTTADLQILPESEDEESSESEPEFTEDELMYDDCCIGGRQLTF [I124A],decreasing interaction strength
4,MLSAHRPAEPPAVEGCEPPRKERQGGLLPPDDRHDSGLDSMKEEEYRQLVRELEDIRLQPREPPARPHAWAQQLTEDGDTFLHLAIIHEEKALSLEVIRQAAGDAAFLNFQNNLSQTPLHLAVKTDQAEIAEHLLKAGCDLDVRDFRGNTPLHIACQQGSLRSVSVLTQHCQPHHLLAVLQATNYNGHTCLHLASIQGYLAVVEYLLSLGADVNAQEPCNGRTALHLAVDLQNSDLVSLLVKHGPDVNKVTYQGYSPYQLTWGRDNASIQEQLKLLTTADLQILPESEDEESSESEPEFTEDELMYDDCCIGGRQLTF [I124K],decreasing interaction strength
5,MLSAHRPAEPPAVEGCEPPRKERQGGLLPPDDRHDSGLDSMKEEEYRQLVRELEDIRLQPREPPARPHAWAQQLTEDGDTFLHLAIIHEEKALSLEVIRQAAGDAAFLNFQNNLSQTPLHLAVRTDQAEIAEHLLKAGCDLDVRDFRGNTPLHIACQQGSLRSVSVLTQHCQPHHLLAVLQATNYNGHTCLHLASIQGYLAVVEYLLSLGADVNAQEPCNGRTALHLAVDLQNSDLVSLLVKHGPDVNKVTYQGYSPYQLTWGRDNASIQEQLKLLTTADLQILPESEDEESSESEPEFTEDELMYDDCCIGGRQLTF [I124R],decreasing interaction strength
